Laboratory results reported in patent US20170210813A1 (Regeneron, published 2017).

What was measured:
hPDGFRb.mmh [1] = target: T1, hPDGFRb.mmh (human, UniProt P09619 33-531); assay: Octet BLI cross-competition, 25 C; hPDGFRb.mmh on anti-Penta-His tips pre-saturated with mAb-1 H4H3099S (row 6)
T1 construct: Soluble monomeric construct; also called soluble human PDGFR-beta.mmh
Procedure: (§1) A cross-competition assay was conducted to assess the ability of select antibodies to compete with one another for binding to human PDGFR-beta. […] Each PDGFR-beta.mmh-coated sensor tip was saturated for 5 min with a first anti-PDGFR-beta antibody (Mab #1; 50 μg/mL). Next, each sensor tip was saturated with a solution of a second anti-PDGFR-beta antibody (Mab #2). The real time response of Mab #2 binding to PDGR-beta.mmh pre-complexed with Mab #1 was then monitored. All assays were performed at 25° C. with a flow rate of 1000 rpm on an Octet RED384 biosensor in Octet HBST buffer according to manufacturer's instructions (ForteBio Corp., Menlo Park, Calif.). Results are illustrated in FIG. 2.

human PDGFRb.hFc [2] = target: T2, human PDGFRb.hFc (human); assay: SPR, mAb captured, 25 C
T2 construct: Soluble dimeric construct with human Fc; also called hPDGFRb.hFc
Procedure: (§2) Antibodies, expressed as either mouse Fc (prefix H1M; H2M) or human Fc (prefix H4H), were captured on their respective anti-Fc sensor surfaces (Mab capture format). […] Kinetic association (kₐ) and dissociation (kd) rate constants were determined by processing and fitting the data to a 1:1 binding model using Scrubber 2.0 curve fitting software.

hPDGFRb.mmh [3] = target: T1, hPDGFRb.mmh; assay: SPR, mAb captured, 25 C
Procedure: as §2

[4] = target: T3, Macaca fascicularis PDGFRb.mmh (Macaca fascicularis); assay: SPR, mAb captured, 25 C
T3 construct: Soluble monomeric construct; also called mfPDGFRb.mmh
T3 chain: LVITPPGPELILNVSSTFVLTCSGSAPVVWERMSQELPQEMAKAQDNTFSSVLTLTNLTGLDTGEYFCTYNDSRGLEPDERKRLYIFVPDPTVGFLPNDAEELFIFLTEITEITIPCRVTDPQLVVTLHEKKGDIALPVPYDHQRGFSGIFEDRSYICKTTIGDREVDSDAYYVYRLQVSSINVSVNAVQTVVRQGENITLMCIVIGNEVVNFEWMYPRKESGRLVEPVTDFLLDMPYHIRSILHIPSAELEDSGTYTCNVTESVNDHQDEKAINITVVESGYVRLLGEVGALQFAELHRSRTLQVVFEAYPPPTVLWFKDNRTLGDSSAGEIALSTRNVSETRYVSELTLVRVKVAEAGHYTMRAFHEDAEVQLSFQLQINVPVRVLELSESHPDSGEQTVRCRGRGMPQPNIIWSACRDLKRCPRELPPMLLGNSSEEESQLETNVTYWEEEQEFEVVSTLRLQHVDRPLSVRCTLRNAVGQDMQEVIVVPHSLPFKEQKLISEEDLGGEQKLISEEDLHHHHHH
Procedure: as §2

hPDGFRb.mmh [5] = target: T1, hPDGFRb.mmh; assay: Octet BLI cross-competition, 25 C; hPDGFRb.mmh on anti-Penta-His tips pre-saturated with mAb-1 Control I (row 1)
Procedure: as §1

hPDGFRb.mmh [6] = target: T1, hPDGFRb.mmh; assay: Octet BLI cross-competition, 25 C; hPDGFRb.mmh on anti-Penta-His tips pre-saturated with mAb-1 H4H3310N (row 9)
Procedure: as §1

hPDGFRb.mmh [7] = target: T1, hPDGFRb.mmh; assay: Octet BLI cross-competition, 25 C; hPDGFRb.mmh on anti-Penta-His tips pre-saturated with mAb-1 H4H3305N (row 8)
Procedure: as §1

hPDGFRb.mmh [8] = target: T1, hPDGFRb.mmh; assay: blocking ELISA, biot-hPDGFRb.mmh to coated PDGF-BB
[9] = target: T4, full length human PDGFR-beta on HEK293 cells (human, UniProt P09619 33-1106); assay: cell-based or functional assay
hPDGFRb.mmh [10] = target: T1, hPDGFRb.mmh; assay: Octet BLI cross-competition, 25 C; hPDGFRb.mmh on anti-Penta-His tips pre-saturated with mAb-1 H4H3374N (row 3)
Procedure: as §1

hPDGFRb.mmh [11] = target: T1, hPDGFRb.mmh; assay: Octet BLI cross-competition, 25 C; hPDGFRb.mmh on anti-Penta-His tips pre-saturated with mAb-1 H4H3094P (row 5)
Procedure: as §1

hPDGFRb.mmh [12] = target: T1, hPDGFRb.mmh; assay: Octet BLI cross-competition, 25 C; hPDGFRb.mmh on anti-Penta-His tips pre-saturated with mAb-1 H4H3365N (row 2)
Procedure: as §1

human PDGFRb.hFc [13] = target: T2, human PDGFRb.hFc; assay: SPR, mAb captured, 37 C
Procedure: as §2

hPDGFRb.mmh [14] = target: T1, hPDGFRb.mmh; assay: SPR, mAb captured, 37 C
Procedure: as §2

[15] = target: T3, Macaca fascicularis PDGFRb.mmh; assay: SPR, mAb captured, 37 C
Procedure: as §2

hPDGFRb.mmh [16] = target: T1, hPDGFRb.mmh; assay: Octet BLI cross-competition, 25 C; hPDGFRb.mmh on anti-Penta-His tips pre-saturated with mAb-1 H4H3103S (row 4)
Procedure: as §1

[17] = target: T4, full length human PDGFR-beta on HEK293 …; assay: cell-based or functional assay; remark: listed apart in the source
hPDGFRb.mmh [18] = target: T1, hPDGFRb.mmh; assay: Octet BLI cross-competition, 25 C; hPDGFRb.mmh on anti-Penta-His tips pre-saturated with mAb-1 H4H3107S (row 7)
Procedure: as §1

| Binder | Response of mAb-2 Binding to hPDGFRβ.mmh Pre-Complexed with mAb-1 (nm) (hPDGFRb.mmh [1]) | Kd (human PDGFRb.hFc [2]) [pM] | koff (human PDGFRb.hFc [2]) [s⁻¹] | kon (human PDGFRb.hFc [2]) [M⁻¹ s⁻¹] | t1/2 (human PDGFRb.hFc [2]) [min] | Kd (hPDGFRb.mmh [3]) [pM] | koff (hPDGFRb.mmh [3]) [s⁻¹] | kon (hPDGFRb.mmh [3]) [M⁻¹ s⁻¹] | t1/2 (hPDGFRb.mmh [3]) [min] | Kd [4] [pM] | koff [4] [s⁻¹] | kon [4] [M⁻¹ s⁻¹] | t1/2 [4] [min] | Response of mAb-2 Binding to hPDGFRβ.mmh Pre-Complexed with mAb-1 (nm) (hPDGFRb.mmh [6]) | Response of mAb-2 Binding to hPDGFRβ.mmh Pre-Complexed with mAb-1 (nm) (hPDGFRb.mmh [7]) | % Maximum Blocking (hPDGFRb.mmh [8]) [%] | IC50 (hPDGFRb.mmh [8]) [pM] | Percent Internalization (Relative to Control I) [9] [%] | Response of mAb-2 Binding to hPDGFRβ.mmh Pre-Complexed with mAb-1 (nm) (hPDGFRb.mmh [10]) | Response of mAb-2 Binding to hPDGFRβ.mmh Pre-Complexed with mAb-1 (nm) (hPDGFRb.mmh [11]) | also measured |
| --- | --- | --- | --- | --- | --- | --- | --- | --- | --- | --- | --- | --- | --- | --- | --- | --- | --- | --- | --- | --- | --- |
| H4H3107S (antibody, human IgG4, V domains shown, human IgG4 Fc (H4H prefix)) VH: QVQLVESGGGFVQPGGSLRLSCAASGFTFTNYAMSWVRQAPGKGLEWVSAISGVGGSTYYADSVKGRFTISRDTSKNMLYLQMNSLRAEDTAVYYCAKAPHWGPFGSWGQGTLVTVSS VL: not shown | 0.01 | 80.1 | 4.24e-05 | 529000 | 272 | 863 | 0.000191 | 221000 | 61 | 836 | 0.000198 | 236000 | 58 | 0.02 | 0.02 | 83 | 66 | 92 | 0.31 | 0.36 | Response of mAb-2 Binding to hPDGFRβ.mmh Pre-Complexed with mAb-1 (nm) (hPDGFRb.mmh [5]): 0.28 nm; Response of mAb-2 Binding to hPDGFRβ.mmh Pre-Complexed with mAb-1 (nm) (hPDGFRb.mmh [12]): 0.32 nm; Kd (human PDGFRb.hFc [13]): 165 pM; koff (human PDGFRb.hFc [13]): 0.000115 s⁻¹; kon (human PDGFRb.hFc [13]): 695000 M⁻¹ s⁻¹; t1/2 (human PDGFRb.hFc [13]): 101 min; Kd (hPDGFRb.mmh [14]): 1450 pM; koff (hPDGFRb.mmh [14]): 0.000879 s⁻¹; kon (hPDGFRb.mmh [14]): 605000 M⁻¹ s⁻¹; t1/2 (hPDGFRb.mmh [14]): 13 min; Kd [15]: 1380 pM; koff [15]: 0.000942 s⁻¹; kon [15]: 683000 M⁻¹ s⁻¹; t1/2 [15]: 12 min; Response of mAb-2 Binding to hPDGFRβ.mmh Pre-Complexed with mAb-1 (nm) (hPDGFRb.mmh [16]): 0.33 nm; IC50, blocking PDGF-BB (250 pM) activation, SRE-luciferase [17]: 1.7e-10 M; IC50, blocking PDGF-DD (400 pM) activation, SRE-luciferase [17]: 2.4e-10 M |
| H4H3365N (antibody, human IgG4, V domains shown, human IgG4 Fc (H4H prefix)) VH: EVQLVESGGGLVQPGRSLRLSCAASGFTFDDFAMHWVRQVPGKGLEWVSGISWSSGTIGYVGSVKGRFTISRDNAKNSLYLQMNSLRAEDTAMYFCTKDKAAFHDAFDIWGQGTMVTVSS VL: not shown | 0.29 | 244 | 4.55e-05 | 184000 | 254 | 1660 | 0.000142 | 85300 | 81 | 1700 | 0.00015 | 88300 | 77 | 0.28 | 0.28 | 87 | 370 | 65 | 0.01 | 0 | Response of mAb-2 Binding to hPDGFRβ.mmh Pre-Complexed with mAb-1 (nm) (hPDGFRb.mmh [18]): 0.26 nm; Kd (human PDGFRb.hFc [13]): 1050 pM; koff (human PDGFRb.hFc [13]): 0.000264 s⁻¹; kon (human PDGFRb.hFc [13]): 250000 M⁻¹ s⁻¹; t1/2 (human PDGFRb.hFc [13]): 44 min; Kd (hPDGFRb.mmh [14]): 5380 pM; koff (hPDGFRb.mmh [14]): 0.00102 s⁻¹; kon (hPDGFRb.mmh [14]): 190000 M⁻¹ s⁻¹; t1/2 (hPDGFRb.mmh [14]): 11 min; Kd [15]: 5060 pM; koff [15]: 0.00101 s⁻¹; kon [15]: 200000 M⁻¹ s⁻¹; t1/2 [15]: 11 min; Response of mAb-2 Binding to hPDGFRβ.mmh Pre-Complexed with mAb-1 (nm) (hPDGFRb.mmh [16]): 0.01 nm; IC50, blocking PDGF-BB (250 pM) activation, SRE-luciferase [17]: 2.3e-10 M; IC50, blocking PDGF-DD (400 pM) activation, SRE-luciferase [17]: 3.7e-10 M |
